In patent US8535680B2, “Anti-LPS factor from Parietaria judaica and methods of use thereof” (Consiglio Nazionale Delle Ricerche, priority 2008, dated 2013):
No end group written: not given here.

B1: QETCGTMVRALMPCLPFVQGKEKEPSKGCCSGAKRLDGETKTGPQRVHACECIQTAMKTYSDIDGKLVSEVPKHCGIVDSKLPPIDVNMDCKTVGVVPRQPQLPVSLRHGPVTGPSDPAHKARLERPQIRVPPPAPEKA (protein)
chain: QETCGTMVRALMPCLPFVQGKEKEPSKGCCSGAKRLDGETKTGPQRVHACECIQTAMKTYSDIDGKLVSEVPKHCGIVDSKLPPIDVNMDCKTVGVVPRQPQLPVSLRHGPVTGPSDPAHKARLERPQIRVPPPAPEKA
notes: Recombinant isoform of Parietaria judaica major allergen Parj1, 139 aa, containing the Par37 region

Assays:
HeLa cells = test: Cytotoxicity test with HeLa cells (MTS, CellTiter 96 AQueous One); assay type: cell-based, human; conditions: 0.5-5-50 μg/ml, 48 h; FIG. 5
Experimental: FIG. 5: Cytotoxicity test carried out with HeLa cells in culture. The assay describes the bioreduction of MTS (Owen's Reagent) produced by enzymes having dehydrogenase activity present in metabolically active cells.
The cytotoxity tests were carried out on HeLa cell lines growing in adhesion. Cell lines were maintained in RPMI 1640 culture medium containing 10% fetal calf serum and 0.1% antibiotics (penicillin, streptomycin and gentamycin); cultivated under humid 5% CO2 atmosphere at 37° C. To carry out the cytotoxicity test, the system CellTiter 96 AQueous One Solution Cell Proliferation Assay by Promega was used. In short, Hela cells were resuspended in a 100 μl volume of medium at a concentration of 10,000 cells/ml, then seeded on 96-well flat bottom plates and left to adhere in incubator at 37° C. for 3 h. Thereafter, Par37 peptide was added at increasing concentrations (0.5-5-50 μg/ml). The plate was incubated at 37° C. in 5% CO2 for further 48 h. Then 20 μl of CellTiter 96 AQueous One Solution reagent were added. Cells were thus incubated for 1 h at 37° C. in a CO2 incubator. The test was carried out in triplicate and compared to a row of blanks containing exclusively culture medium. After incubation, a spectrophotometer reading was carried out, measuring absorbance at 490 nm.

[1] = system: heparinised blood from Pj allergic subjects; test: Histamine release from blood of Pj allergic patients; assay type: cell-based, human; conditions: 0.0001 to 1 μg/ml; Pj allergic subjects n=5; FIG. 9
Experimental: FIG. 9: Testing of histamine release from blood of Pj allergic patients. The antigens used were: rParj1 (line with squares, denominated Pj1) and the Par37 peptide (line with triangles). On the x-axis the amounts of protein used, and on the y-axis the percentage of histamine released with respect to the percentage of total histamine present in the patient's mastocytes are reported.
The histamine release assay was carried out by using heparinised blood from Pj allergic subjects (n=5) and an allergen concentration scale ranging from 0.0001 and 1 μg/ml. Release protocol was carried out as previously described (Colombo, P., et al., Identification of an immunodominant IgE epitope of the Parietaria Judaica major allergen. J. Immunol, 1998. 160(6): p. 2780-5). The data reported in FIG. 9 show the percentage of release obtained after stimulation with Parj1 allergen.

human erythrocytes = test: Hemolysis test; assay type: cell-based; conditions: 0.0025-0.025-0.25-2.5-25 mM; 6% erythrocytes; reading at 415 nm; FIG. 6
Experimental: FIG. 6: Hemolysis test with human erythrocytes. The assay is capable of describing possible hemolysis induced after incubation with Par37 peptide at different concentrations. There were used 1×PBS as negative control and 0.1% Triton X100 as positive control. Optical Densities measured at […] indicate hemoglobin release in the medium following cell lysis.
For the hemolysis test, peripheral blood, collected from a donor, in heparin was used. A solution of 6% human erythrocytes was prepared. Erythrocyte concentration was controlled by reading the optical density of an hemolysate of the cell suspension thus made: 0.5 ml blood+7 ml distilled water should give a reading of 0.7 O.D. at the spectrophotometer at 541 nm. Erythrocytes were incubated in triplicate with an increasing concentration of Par37 (0.0025-0.025-0.25-2.5-25 mM) and with 1×PBS as negative control and a 0.1% solution of Triton X100 as positive control. Sample reading was carried out at 415 nm.

[2] = system: PBMC from Pj allergic patients and non-allergic subjects; test: PBMC proliferation (Cell Proliferation ELISA, BrdU); assay type: cell-based, human; conditions: 0.1, 1 and 10 μg/ml, 5 days; 3 Pj allergic patients and 3 non-allergic subjects; FIG. 7
Experimental: FIG. 7: Analysis of PBMC proliferation of 3 Pj allergic patients and 3 healthy subjects. Stimulation was conducted by adding to the culture medium rParj1 and Par37 synthetic peptide at a concentration of 0.1, 1 and 10 μg/ml. Numerical values on the y-axis indicate proliferation indexes with respect to the unstimulated sample. White histograms identify PBMC stimulated by Parj1, black histograms identify PBMC stimulated by Par37 peptide. Horizontal bars indicate significance values (values above the bar indicate a positive stimulation; values below the bar indicate absence of proliferation).
PBMC from Pj allergic patients (n=3) and non-allergic subjects (n=3) were purified by Ficoll gradient and resuspended in complete RPMI (10% AB serum). Cells were stimulated 5 days with 0.1, 1 and 10 μg/ml rParj1 and Par37. For the determination of stimulation indexes, cells were treated according to what described in the Cell Proliferation ELISA kit, BrdU (colorimetric) (Roche).

[3] = system: PBMC of non-allergic subjects; test: ELISA of IFN-γ release from PBMC stimulated with the antigen itself; conditions: 1 and 10 μg/ml; healthy subjects n=4; FIG. 8
Experimental: Black bars indicate the values of the unstimulated sample (negative control), checkered bars the values of cells stimulated by rParj1.01, white bars the values obtained from cells stimulated by Par37 peptide.
(IFN-γ) cytokine production in supernatants after stimulation with the various antigens was evaluated by ELISA, using commercial kits and following the manufacturers' (GE healthcare, IFNg, Human, Biotrak) instructions.

[4] = system: LPS (Escherichia coli, serotype 026:B6); assay type: binding

Molecule | toxic effect on HeLa cells (MTS bioreduction, absorbance 490 nm) (HeLa cells) | histamine release (anaphylactic activity) [1] | hemolytic effect on human erythrocytes (human erythrocytes) | cell proliferation (lymphoproliferative activity) of PBMC [2] | IFN-γ release from PBMC induced by the antigen itself [3] | LPS-binding capability ([4]; FIG. 3, native isoforms of Parj1) | lowest dilution with positive reaction to the endotoxin in the LAL test (endpoint) ([4]; eluate of HisTrap column loaded with 100 μg protein, then 100 μg LPS, LAL sensitivity 0.12 EU)
LPVSLRHGPVTGPSDPAHKARLERPQIRVPPPAPEKA [Par37] | no toxic effect | no histamine release is observed | no hemolytic effect |  |  |  | 
B1 |  |  |  | capable of inducing cell proliferation in all allergic patients | impressive secretion of cytokine | has the LPS-binding capability | 1/256
